This is an account of results in patent publication US20050153872A1, “Methods and compositions for the treatment of infection” (priority 2004, published 2005).

Assay [1] has as its system ATCC 700671 PRSP (S. pneumoniae). The assay is described as follows: In vivo protection effects of Ph-SP. Also on record: species or system mice. The following applies: for Death distribution in hours 24 h / Death distribution in hours 48 h / Death distribution in hours 72 h / Death distribution in hours 96 h / Death distribution in hours 120 h / Death distribution in hours 144 h / Death distribution in hours 168 h / Number of Death: 5 animals. The procedure:
To assess the in vivo effect of Ph-SP, mice were injected with ATCC 700671 PRSP intraperitoneally, followed by intravenous injections of PH-SP or controls.
One hour after administration of the fatal dose of ATCC 700671 PRSP (10^5 CFU/ml), each mouse was injected through the tail vein with test agents at three dosages as described in Table 4.

The subject of assay [2] is S. pneumoniae ATCC 700671 (Penicillin-resistant SP). The following applies: 5 ug/ml.
In assay [3] the test system is S. pneumoniae BQIOC 31201 (non-resistant). The following applies: Ph-SP 70,000 daltons vs penicillin 350 daltons.

B1: Ph-SP: Colicin Ia linked to ComC pheromone of S. pneumoniae (protein)
chain: SDPVARGITNPGAESLGYDSDGHEIMAVASPIYVASNPPRVASPVFHGTPPAWSSFGNKTIWGGNEWVASPDSPTRSDIEKRDKEITAYKNTLSAQQKENENKRTEAGKRLSAAIAAREKDENTLKTLRAGNADAADITRQEFRLLQAELREYGFRTEIAGYDALRLHTESRMLFADADSLRISPREARSLIEQAEKRQKDAQNADKKAADMLAEYERRKGILDTRLSELEKNGGAALAVLDAQQARLLGQQTRNDRAISEARNKLSSVTESLNTARNALTRAEQQLTQQKNTPDGKTIVSPEKFPGRSSTNHSIVVSGDPRFAGTIKITTSAVIDNRANLNYLLSHSGLDYKRNILNDRNPVVTEDVEGDKKIYNAEVALAEWDKLRQRLLDARNKITSAESAVASNSARNNLSARTNEQKHANDALNALLKEKENIRNQLSGINQKIAEEKRKQDELKATKDAINFTTEFLKSVSEKYGAKAEQLAREMAGQAKGKKIRNVEEALKTYEKYRADINKKINAKDRAAIAAALESVKLSDISSNLNRFSRGLGYAGKFTSLADWITEFGKAVARGTENWRPLFVKTETIIAGNAATALVALALVFSILTGSALGIIGYGLLMAVTGALIDESLVEKANKFWGIEMRLSKFFRDFILQRKK
modifications: colicin Ia attached to streptococcus pneumoniae polypeptide pheromone
On to B1, for which, in assay [1] (5 mg/kg tail vein), the “Death distribution in hours 24 h” value came to 0, the “Death distribution in hours 48 h” value is on record as 1, the “Death distribution in hours 72 h” value was 0 and the “Death distribution in hours 96 h” value was 0. In addition, in assay [1] (5 mg/kg tail vein), the “Death distribution in hours 120 h” value amounted to 0, the “Death distribution in hours 144 h” value was determined as 0, the “Death distribution in hours 168 h” value is 0 and the “Number of Death” value is given as 1. For the same molecule, in assay [1] (10 mg/kg tail vein), the “Death distribution in hours 24 h” value is recorded as 0, the “Death distribution in hours 48 h” value was 0, the “Death distribution in hours 72 h” value came out at 0 and the “Death distribution in hours 96 h” value worked out at 0. In assay [1] (10 mg/kg tail vein), the “Death distribution in hours 120 h” value turned out to be 0, the “Death distribution in hours 144 h” value was 0, the “Death distribution in hours 168 h” value is given as 0 and the “Number of Death” value is on record as 0. For the same molecule, the “protection against infection in mice” value in assay [1] (ATCC 700671 PRSP i.p., agent i.v.) was “prevents streptococcus pneumoniae infection in mice”. For the same molecule, in assay [2], the “inhibition of cell growth” value is “more than 90%”. Further, the “bactericidal effect relative to penicillin on a molar basis” value in assay [3] is listed as “two hundred fold greater”.
